We go through one molecule from US20250236667A1, “ANTIBODIES TO MUTANT CALRETICULIN AND USES THEREOF” (CENTRAL ADELAIDE LOCAL HEALTH NETWORK INC, priority 2021, published 2025).

Experiment [1] concerns TpoR in TF-1 TpoR CALR^del61. Description: TpoR tyrosine phosphorylation, immunoprecipitation and Western blot. The note with it: 8 hours of 20 μg/mL. The experiment is classed as cell-based, human. Here is the method: A. Cell extracts blotted for phospho-STAT1, total STAT1, phospho-STAT3, total STAT3 and actin from TF-1 TpoR cells after incubation with 10 or 20 μg/mL 4D7 or IgG for 4 or 8 hours as indicated. B. Similar experiment using TPO-independent TF-1 TpoR CALR^del61 cells at 4 and 8 hours. C. Similar experiment shown using TPO-independent TF-1 TpoR CALR^del52 cells, 8 hours. D. Flow cytometry analysis for cell cycle distribution of TF-1 TpoR CALR^del61 cells exposed to 20 μg/mL IgG or 4D7 for 48 hours. Cells were harvested and fixed and stained with propidium iodide and their DNA contents were analysed. Results from one representative experiment shown. Percentages of cells in Sub Go, G1. S and G2/M cycle indicated. E. Western blot showing specific co-immunoprecipitation of mutant CALR^del61 cells with TpoR anti-FLAG antibody under reducing conditions detected by total and mutant specific CALR antibodies. Arrowheads represent detected CALR protein. F. Western blot showing decreased TpoR phosphorylation in a TpoR immunoprecipitated after 8 hours of 20 μg/mL 4D7 treatment compared to PBS or IgG control in TF-1 TpoR CALR^del61. […]
(In general: A western blot detects proteins with antibodies after separation by electrophoresis.)

Experiment [2] addresses T1, mutant CALR dimers and monomers bound to TpoR in TF-1 TpoR CALR^del61 (Homo sapiens, UniProt P27797).
T1 construct: expressed in transfected cells; host or cells: TF-1 TpoR CALR^del61
T1 sequence (P27797 with tags, fused parts or gaps limits assumed): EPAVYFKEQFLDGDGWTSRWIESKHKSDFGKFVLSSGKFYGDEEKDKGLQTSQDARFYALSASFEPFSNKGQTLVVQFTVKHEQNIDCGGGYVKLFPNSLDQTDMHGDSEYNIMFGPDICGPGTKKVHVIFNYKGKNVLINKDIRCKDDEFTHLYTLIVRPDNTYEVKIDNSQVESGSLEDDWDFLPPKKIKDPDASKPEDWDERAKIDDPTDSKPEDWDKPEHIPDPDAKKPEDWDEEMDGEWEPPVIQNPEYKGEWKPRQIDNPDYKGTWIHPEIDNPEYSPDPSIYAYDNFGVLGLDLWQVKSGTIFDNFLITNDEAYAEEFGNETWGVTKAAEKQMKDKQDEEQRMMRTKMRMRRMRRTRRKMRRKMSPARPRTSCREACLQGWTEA
As to the kind of experiment: TpoR immunoprecipitation under non-reducing conditions. The experiment is classed as cell-based. As to conditions: 8 hour treatment with 20 μg/mL. How it is done: A. Cell extracts blotted for phospho-STAT5, total STAT5, phospho-ERK, total ERK and actin from TF-1 TpoR cells after incubation with 10 or 20 μg/mL 4D7 or IgG for 4 or 8 hours, in presence of TPO. The last line indicates TPO withdrawal. B. Similar experiment using TPO-independent TF-1 TpoR CALR^del61 cells. C. Similar experiment using TPO-independent TF-1 TpoR CALR^del52 cells at 8 hours. D. Fraction of apoptotic sub-Go population of TF-1 TpoR CALR^del61 cells after 48 hours of 4D7 or IgG treatment (n=3). E. Western blot showing caspase 3 cleavage occurring within 24 hours of TPO withdrawal in TPO dependent TF-1 TpoR cells. An increase in cleaved caspase 3 is observed after 48 hours of treatment with 20 μg/mL 4D7 in TF-1 TpoR CALR^del61 and TF-1 TpoR CALR^del52 cells. F. Western blot of TpoR immunoprecipitation under non-reducing conditions showing associated CALR 50 kDa monomers and 100 kDa dimers (arrowheads) present only in TF-1 TpoR CALR^del61 disrupted by 8 hour treatment with 20 μg/mL 4D7 but not PBS or 20 μg/mL IgG. CALR monomers & dimers are detectable by polyclonal anti-wild type CALR or anti-mutant CALR monoclonal antibodies. Arrowheads, detected mutant CALR protein: asterisk, non-specific bands. G. Proposed model for the mechanism of action of 4D7 on mutant CALR. […]

Experiment [3] deals with TF-1 TpoR CALR^del61 cells in NSG mice. Description: Chloroma xenograft model (subcutaneous injection). The experiment is classed as in vivo. How it is done:
All procedures were approved by the South Australian Health and Medical Research Animal Ethics Committee (Protocol SAM21-018). Bone marrow engraftment model: 4-6 week old NSG mice were x-ray irradiated with 150 cGy and 5×10^5 cells (TF-1-TpoR CALR^del61) or 5×10^4 cells (100 nM ruxolitinib resistant TF-1 TpoR CALR^del61) were intravenously injected into mice. […] Tail vein bleeds were taken at 3 weeks and analysed via flow cytometry to determine human leukaemia content in the peripheral blood. Leukemic cells were PI-, mCD45.1, hCD33+, zsGreen+. Mice were monitored daily and euthanized once clinical symptoms were observed. At the time of euthanasia, cardiac puncture was performed to obtain both peripheral blood and serum for analysis. Additionally, bone marrow from both femurs, spine and spleens were analysed for leukemic content as detailed above. Chloroma model: 4-6 week old NSG mice were anaesthetised by isoflurane inhalation and shaved on the left back/flank and 1×10^7 cells were injected into the mice. Cells were pre-treated with 20 μg/mL IgG or 4D7 for 1 hour prior to injection. […] Tumour progression was assessed through caliper measurements every 2 days. Mice were euthanised once tumours began to impede movement, show signs of ulceration or if any measurement of the tumour exceeded 30 mm (length, width or depth).

B1: 4D7: rat monoclonal IgG2a antibody against the mutant CALR neoepitope; VH SEQ ID NO: 5, VL SEQ ID NO: 7 (antibody, listed as Rattus rattus, V domains shown)
VH: QVQLQQSGAELAKPGSSVKISCKASGYTFTNYDMSWIKQRPGQALEWIGAINPGNGVTDYNEKFRGKATLTVDKSSSTAFMQLSSLTPEDTAVYHCAREYRDNYGYFDYWGQGVMVTVSS
VL: DIVLTQTPVSLSVTLGDQASISCRSSQSLEYSDGYTYLDWFLQKPGQSPQLLIYEVSSRFSGVPDRFIGRGSGTDFTLKISRVEPEDLGVYYCFQATHDPFTFGSGTKLEIK
On to B1, for which, in experiment [1], the TpoR tyrosine phosphorylation result was “inhibition”. In addition, the “presence of CALR disulfide-linked dimers and CALR monomers bound to TpoR” value in experiment [2] is recorded as “diminished”. Also, the “survival, hazard ratio” value in experiment [3] (4D7 vs IgG, P=0.02) worked out at 0.19. The mean tumour volume in experiment [3] (21 days post-engraftment, 12.5 mg/kg twice weekly, P=0.04) came out at 353 mm^3.
